Assay results as given in publication doi:10.1101/2025.08.19.670962, “Structural basis for binding of RILPL1 to TMEM55B reveals a lysosomal platform for adaptor assembly through a conserved TBM motif” (bioRxiv, 2025).
Values joined by “and” are separate entries in the source; they are usually repeats but may differ in a detail not shown here. Identical values can stand only once.

B1: RILPL1 391-403 peptide (peptide)
peptide: GYTEQGQEALQHL
notes: also called RL1pep; RILPL1 peptide; source: synthetic peptide (Genscript)
B2: JIP3 889-903 (peptide)
peptide: SQSTEEATEATEVPD
notes: JIP3, residues 889-903; source: synthetic peptide (Genscript)
B3: WDR81 657-668 (peptide)
peptide: DDLEQATEALDS
notes: WDR81, residues 657-668; source: synthetic peptide (Genscript)
B4: JIP4 887-897 (peptide)
peptide: TAEEATEATEG
notes: JIP4, residues 887-897; source: synthetic peptide (Genscript)
B5: His-RILPL1 391-403 (peptide)
peptide: GSGYTEQGQEALQHL
notes: linker after the His6 tag; also called His-tagged RILPL1 peptide; source: synthetic peptide (Genscript); not shown: His6, N-terminal, kept
B6: OCRL-PH domain (as used in ITC) (domain or fragment, UniProt Q01968 1-119, looked up)
chain: MEPPLPVGAQPLATVEGMEMKGPLREPCALTLAQRNGQYELIIQLHEKEQHVQDIIPINSHFRCVQEAEETLLIDIASNSGCKIRVQGDWIRERRFEIPDEEHCLKFLSAVLAAQKAQS
notes: OCRL, PH domain; residues 1-129 are stated for the His-tagged variant of the pull-down; Probably the construct of m14; source: E. coli, purified (protocol similar to that of TMEM55B, no ZnCl2 added)
B7: His-WDR81 657-668 (peptide)
peptide: GSDDLEQATEALDS
notes: linker after the His6 tag; WDR81, residues 657-668; also called His-tagged WDR81 peptide; source: synthetic peptide (Genscript); not shown: His6, N-terminal, kept
B8: His-JIP4 887-897 (peptide)
peptide: GSTAEEATEATEG
notes: linker after the His6 tag; JIP4, residues 887-897; also called His-tagged JIP4 peptide; source: synthetic peptide (Genscript); not shown: His6, N-terminal, kept
B9: TMEM55B (80-166), untagged, wild type (domain or fragment)
chain: not shown
notes: N-terminal peptide left from the pET15b expression vector; TMEM55B, residues 80-166; numbers count on: UniProt Q86T03 isoform 2 (284 residues); also called WT TMEM55B region 80-166; source: E. coli BL21(DE3), purified (Ni-NTA, thrombin, second Ni-NTA, gel filtration)

biological target: B9; assay: SEC-MALS; Superdex75 10/300 GL, 1-1.5 mg/mL, TMEM55B_(80-166) alone or with RILPL1 peptide; settings: both partners purified

Binder | stoichiometry N
B1 | 1

biological target: T1, TMEM55B (80-160) (UniProt Q86T03-2 80-160); assay: ITC; peptide or OCRL PH domain injected into the cell with TMEM55B_(80-160); ITC200; Tris-HCl, 150mM NaCl, 1mM DTT, pH 7.5; single binding mode; settings: both partners purified
T1 construct: TMEM55B, residues 80-160; numbers count on: UniProt Q86T03 isoform 2; source: E. coli, purified
T1 sequence (Q86T03 73-153): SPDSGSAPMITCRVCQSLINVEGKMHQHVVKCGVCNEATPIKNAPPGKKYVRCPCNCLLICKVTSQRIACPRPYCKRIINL

Binder | Kd | dH | stoichiometry N
B2 | 127 nM and 126 nM and 103 nM | -8.2 kcal/mol and -9.3 kcal/mol | 1.2 and 0.99 and 1.1
B3 | 20 nM and 33 nM and 12 nM | -9 kcal/mol and -9.1 kcal/mol and -8.7 kcal/mol | 0.94 and 1.1
B4 | 2900 nM and 2200 nM and 3100 nM | -8.9 kcal/mol and -9.7 kcal/mol and -8.7 kcal/mol | 1 and 0.91 and 0.78
B5 | 680 nM and 590 nM and 1000 nM | -11.4 kcal/mol and -12.1 kcal/mol and -13.6 kcal/mol | 0.87 and 0.95
B6 | – | -5.3 kcal/mol and -5.9 kcal/mol and -6.7 kcal/mol | 0.69 and 0.86 and 0.68

biological target: B9; assay: pull-down; 10μM His-tagged peptide or His-tagged OCRL PH domain as bait on Ni2+-agarose, 10μM untagged TMEM55B as prey; 20 mM Tris pH 8.0, 300 mM NaCl, 20mM imidazole, 10 mM β-mercaptoethanol; Coomassie; settings: both partners purified

Binder | binding result
B7 | binds
B8 | binds

biological target: T2, His-tagged PH domain of OCRL (1-129) (UniProt Q01968 1-129); assay: as above; settings: both partners purified
T2 construct: OCRL (OCRL1), PH domain, residues 1-129; also called OCRL PH domain; source: E. coli, purified (protocol similar to that of TMEM55B, no ZnCl2 added)
T2 sequence (looked up): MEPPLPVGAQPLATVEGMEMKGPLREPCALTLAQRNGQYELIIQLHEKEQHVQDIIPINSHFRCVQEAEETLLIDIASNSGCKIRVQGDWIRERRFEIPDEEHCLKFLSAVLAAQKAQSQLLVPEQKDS

Binder | binding result
B9 | binds
